Measurements reported in patent US20250101100A1.

How the values were obtained:
[1] = molecular target: mouse NKG2A on cells (mouse); test: blockade of Qa-1b tetramer binding to mNKG2A-expressing CHO cells
[2] = molecular target: mouse NKG2A on cells (mouse); test: binding to mNKG2A-expressing CHO cells
[3] = molecular target: human NKG2A-CD94 heterodimer (extracellular domains) (human) (UniProt Q13241); test: SPR Biacore T200, 37 °C, antibody captured by anti-human Fc on C1 chip, hNKG2A-hCD94 as analyte
[4] = molecular target: cynomolgus monkey NKG2C on CHO cells (cynomolgus monkey); test: cell binding on CHO-cyno NKG2C cells

Sequence of human NKG2A-CD94 heterodimer (extracellular domains) (human) (chain, as listed by the source, chain 1 of 2): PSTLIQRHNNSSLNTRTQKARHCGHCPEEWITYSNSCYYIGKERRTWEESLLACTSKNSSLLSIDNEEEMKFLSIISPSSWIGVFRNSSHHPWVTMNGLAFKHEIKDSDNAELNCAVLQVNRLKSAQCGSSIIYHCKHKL
Sequence of human NKG2A-CD94 heterodimer (extracellular domains) (human) (Q13241 32-179, chain 2 of 2): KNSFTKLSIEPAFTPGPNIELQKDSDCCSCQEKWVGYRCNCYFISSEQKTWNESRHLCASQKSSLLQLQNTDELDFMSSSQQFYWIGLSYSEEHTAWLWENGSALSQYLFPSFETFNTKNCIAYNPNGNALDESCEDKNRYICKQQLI

B1: NKG2A.3 antibody (anti-mNKG2A surrogate, mIgG1-D265A) (antibody, V domains shown)
VH: QVQLKQSGAELVKPGASVKISCKTSGYTFTDGYMHWVEQNPGQGLEWIGRIDPDSGYTMYNQKFQDKATLTRDKSSSTVYMELRSLTSEDSAVYYCAINYGEYWYFDFWGQGTQVTVSS
VL: DIVMTQSPSSLAVSAGDKVTINCKSSQTLFSGRYNYLAWYQQKTGQAPKLLIYYTSTRHTGVPGRFIGSGSGTDFTLTINNLQTEDLGNYYCQQHYSTPYTFGAGTNLEIRR
An IC50 [1] of 0.4 nM and an EC50 [2] of 0.3 nM were found for B1 in this work.

B2: Z270 (antibody, from another filing, V domains shown)
VH: QVQLQQPGAELVRPGASVKLSCKASGYTFTSYWMNWVKQRPEQGLQWIGRIDPYDSETHYSQKFKDKAILTVDKSSSTAYMRLSSLTSEDSAVYYCARGGYDFDVGTLYWFFDVWGAGTTVTVS
VL: DIQMTQSPASLSASVGETVTITCRASENIYSYLAWYQQKQGKSPQFLVYNAKTLAEGVPSRFSGSGSGTQFSLKINSLQPEDFGSYYCQHHYGTPRTFGGGTKLEIK
A Half-life of Antibody/Analyte Complex [3] of 3 to 4 s, a Kd [3] of 25 nM and a koff [3] of 0.2 s⁻¹ were found for B2 in this work. The kon [3] was 8e+06 M⁻¹ s⁻¹.

B3: NKG2A.9 antibody (antibody, human IgG1, kappa, V domains shown)
VH: EVQLVESGGGLVKPGGSLRLSCAASGFTFSSHSMNWVRQAPGKGLEWVSAISSSSSYIYYADSVKGRFTISRDNAKNSLYLQMNSLRAEDTAVYYCAREEWGLPFDYWGQGTLVTVSS
VL: AIQLTQSPSSLSASVGDRVTITCRASQGISSALAWYQQKPGKAPKLLIYDASSLKSGVPSRFSGSGSGTDFTLTISSLQPEDFATYYCQQFNSYPLTFGQGTRLEIKR
An EC50 [4] of 0.8 nM was found for B3 in this work.
